The data set is described as follows: self-splicing fitness, log relative to wild type (ln ratio); higher = more splicing; Tetrahymena group I intron in knt gene, E. coli kanamycin selection, DiMSum; sequences stand for … in CUCUCU…GGAGGGAAAAGUUAUCAGGCAUGCACCUGGUAGCUAGUCUUUAAACCAAUAGAUUGCAUCGGUUUAAAAGGCAAGACCGUCAAAUUGCGGGAAAGGGGUCAACAGCCGUUCAGUACCAAGUCUCAGGGGAAACUUUGAGAUGGCCUUGCAAAGGGUAUGGUAAUAAGCUGACGGACAUGGUCCUAACCACGCAGCCAAGUCCUAAGUCAACAGAUCUUCUGUUGAUAUGGAUGCAGUUCACAGACUAAAUGUCGGUCGGGGAAGAUGUAUUCUUCUCAUAAGAUAUAGUCGGACCUCUCCUUAAUGGGAGCUAGCGGAUGAAGUGAUGCAACACUGGAGCCGCUGGGAACUAAUUUGUAUGCGAAAGUAUAUUGAUUAGUUUUGGAGUACUCGUGGUCG
The gist of the method: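 DiMSum derived fitness as the error-weighted combination of fold changes across replicates, kanamycin versus no kanamycin, normalised to wild type. E. coli BL21(DE3) held the library, which randomised all eight P1ex-region intron nucleotides within the knt kanamycin-resistance gene on pET-22b(+). Six replicate transformations grew overnight at 37°C or 30°C on LB agar with or without 25 μg/mL kanamycin, also containing 100 μg/mL carbenicillin, 50 μM IPTG and 0.2% rhamnose, and pooled colonies were amplicon-sequenced on an Illumina HiSeq 2500.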

This note sets out measurements from the supplement of paper PMC7877785.

± gives the uncertainty stated by the source.

Consider CGAAAGCAAUAUUACGAAGG, for which the “self-splicing fitness (ln)” value by setting is: (30 °C) -1.05 ± 0.11; (37 °C) -1.03 ± 0.16. The like results for CGAAAGCAAUAUUACGACAA were, in that order, -1.13 ± 0.25 and -1.63 ± 0.18.

For CGAAAGCAAUAUUACGACAC, the “self-splicing fitness (ln)” value was -2.69 ± 0.18 (30 °C) and -1.56 ± 0.26 (37 °C). As to CGAAAGCAAUAUUACGAGAC, the “self-splicing fitness (ln)” value (37 °C) is -2.62 ± 0.24. Consider CGAAAGCAAUAUUACGAGGG, for which the “self-splicing fitness (ln)” value was -3.66 ± 0.14 (30 °C) and -2.17 ± 0.13 (37 °C).

For CGAAAGCAAUAUUACGAUAG, the “self-splicing fitness (ln)” value (30 °C) is -0.598 ± 0.074 and the “self-splicing fitness (ln)” value (37 °C) worked out at 0.569 ± 0.1. Taken in the same sequence, the figures for CGAAAGCAAUAUUACGAUCC were -1.03 ± 0.16 and -0.798 ± 0.17. Taken in the same sequence, the figures for CGAAAGCAAUAUUACGAUGA were -0.9 ± 0.08 and -0.508 ± 0.088. On to CGAAAGCAAUAUUACGCAAC, for which the “self-splicing fitness (ln)” value reads like this: (30 °C) -2.4 ± 0.18; (37 °C) -2.39 ± 0.35. Taken in the same sequence, the figures for CGAAAGCAAUAUUACGCAAG were -1.44 ± 0.097 and -0.503 ± 0.12. The like results for CGAAAGCAAUAUUACGCAGA were, in that order, -4.25 ± 0.42 and -0.12 ± 0.17.

With CGAAAGCAAUAUUACGCAGU, the “self-splicing fitness (ln)” value was -3.8 ± 0.22 (30 °C) and -2.69 ± 0.17 (37 °C). With CGAAAGCAAUAUUACGCCUC, under “37 °C”, the “self-splicing fitness (ln)” value is -1.53 ± 0.32.

For the sequence CGAAAGCAAUAUUACGCGUG, the “self-splicing fitness (ln)” value by setting is: (30 °C) -1.16 ± 0.068; (37 °C) 0.12 ± 0.079. Take CGAAAGCAAUAUUACGCUAU: the “self-splicing fitness (ln)” value (30 °C) is -4.13 ± 0.36 and the “self-splicing fitness (ln)” value (37 °C) was -2.4 ± 0.27. On to CGAAAGCAAUAUUACGCUCC, for which the “self-splicing fitness (ln)” value (30 °C) was -1.14 ± 0.18 and the “self-splicing fitness (ln)” value (37 °C) was -1.11 ± 0.21.

On to CGAAAGCAAUAUUACGGAAU, for which the “self-splicing fitness (ln)” value was -3.69 ± 0.29 (30 °C) and -2.15 ± 0.49 (37 °C). Taken in the same sequence, the figures for CGAAAGCAAUAUUACGGAUA were -2.86 ± 0.18 and -3 ± 0.19. The like results for CGAAAGCAAUAUUACGGGGC were, in that order, -4.34 ± 0.32 and -1.98 ± 0.19.

For the sequence CGAAAGCAAUAUUACGUAGU, the “self-splicing fitness (ln)” value was -3.2 ± 0.098 (30 °C) and -2.77 ± 0.13 (37 °C). CGAAAGCAAUAUUACGUCAC: the “self-splicing fitness (ln)” value (37 °C) was -2.32 ± 0.32. For CGAAAGCAAUAUUACGUCAU, the “self-splicing fitness (ln)” value is, setting by setting: (30 °C) -4.71 ± 0.36; (37 °C) -0.631 ± 0.14.

Turning to CGAAAGCAAUAUUACGUCCU, the “self-splicing fitness (ln)” value is, setting by setting: (30 °C) -0.837 ± 0.11; (37 °C) -0.445 ± 0.13. Turning to CGAAAGCAAUAUUACGUCGA, the “self-splicing fitness (ln)” value reads like this: (30 °C) -3.02 ± 0.17; (37 °C) -1.51 ± 0.14. The like results for CGAAAGCAAUAUUACGUCGC were, in that order, -3.03 ± 0.21 and -2.59 ± 0.23. Taken in the same sequence, the figures for CGAAAGCAAUAUUACGUGAG were -0.204 ± 0.048 and -0.102 ± 0.071. Taken in the same sequence, the figures for CGAAAGCAAUAUUACGUUGA were -3.72 ± 0.18 and -2.28 ± 0.16.

Consider CGAAAGCAAUAUUACGUUUA, for which the “self-splicing fitness (ln)” value was -1.99 ± 0.13 (30 °C) and -1.83 ± 0.14 (37 °C).

CGACAGCAAUAUUACGAGUC: the “self-splicing fitness (ln)” value reads like this: (30 °C) -4.97 ± 0.36; (37 °C) -2.42 ± 0.24. Taken in the same sequence, the figures for CGACAGCAAUAUUACGAUAA were -3.74 ± 0.28 and -1.27 ± 0.14. In the case of CGACAGCAAUAUUACGCAAA, the “self-splicing fitness (ln)” value reads like this: (30 °C) -3.94 ± 0.31; (37 °C) -3.08 ± 0.22.

In the case of CGACAGCAAUAUUACGCAAC, the “self-splicing fitness (ln)” value (30 °C) was -4.32 ± 0.31 and the “self-splicing fitness (ln)” value (37 °C) was -2.61 ± 0.27. The like results for CGACAGCAAUAUUACGCAUU were, in that order, -2.93 ± 0.15 and -2.03 ± 0.16. Taken in the same sequence, the figures for CGACAGCAAUAUUACGCCUA were -2.48 ± 0.19 and -1.01 ± 0.17. As to CGACAGCAAUAUUACGCUAA, the “self-splicing fitness (ln)” value is, setting by setting: (30 °C) -2.16 ± 0.19; (37 °C) -1.57 ± 0.18. Consider CGACAGCAAUAUUACGCUAC, for which the “self-splicing fitness (ln)” value (37 °C) is -1.12 ± 0.28. In the case of CGACAGCAAUAUUACGGAAC, the “self-splicing fitness (ln)” value by setting is: (30 °C) -3.4 ± 0.19; (37 °C) -2.74 ± 0.23. Taken in the same sequence, the figures for CGACAGCAAUAUUACGGCCA were -1.16 ± 0.15 and -0.534 ± 0.18. The like results for CGACAGCAAUAUUACGGGGA were, in that order, -3.22 ± 0.15 and -2.35 ± 0.11. The like results for CGACAGCAAUAUUACGGUUC were, in that order, -2.59 ± 0.1 and -2.24 ± 0.13. As to CGACAGCAAUAUUACGUAAU, the “self-splicing fitness (ln)” value reads like this: (30 °C) -3.73 ± 0.16; (37 °C) -2.34 ± 0.15. For the sequence CGACAGCAAUAUUACGUAUA, the “self-splicing fitness (ln)” value (30 °C) was -4.3 ± 0.47 and the “self-splicing fitness (ln)” value (37 °C) was -1.54 ± 0.27. On to CGACAGCAAUAUUACGUCAC, for which the “self-splicing fitness (ln)” value by setting is: (30 °C) -3.14 ± 0.14; (37 °C) -2.19 ± 0.16.

Regarding CGACAGCAAUAUUACGUGAG, the “self-splicing fitness (ln)” value by setting is: (30 °C) -0.627 ± 0.052; (37 °C) -0.333 ± 0.074. Taken in the same sequence, the figures for CGACAGCAAUAUUACGUGCC were -1.11 ± 0.12 and -0.684 ± 0.14.

On to CGACAGCAAUAUUACGUGUA, for which the “self-splicing fitness (ln)” value reads like this: (30 °C) -3 ± 0.14; (37 °C) -1.59 ± 0.1. Consider CGACAGCAAUAUUACGUUAG, for which the “self-splicing fitness (ln)” value is, setting by setting: (30 °C) -2.51 ± 0.097; (37 °C) -0.772 ± 0.095.

As to CGACAGCAAUAUUACGUUCU, the “self-splicing fitness (ln)” value was -0.971 ± 0.05 (30 °C) and -0.0323 ± 0.07 (37 °C). The like results for CGACAGCAAUAUUACGUUGG were, in that order, -2.92 ± 0.1 and -1.54 ± 0.1. The like results for CGAGAGCAAUAUUACGAAAC were, in that order, -2.91 ± 0.36 and -1.97 ± 0.48. Regarding CGAGAGCAAUAUUACGAAUG, the “self-splicing fitness (ln)” value (30 °C) is -2.96 ± 0.2 and the “self-splicing fitness (ln)” value (37 °C) is -2.03 ± 0.21. For the sequence CGAGAGCAAUAUUACGAUCG, the “self-splicing fitness (ln)” value (30 °C) is -2.87 ± 0.43. Turning to CGAGAGCAAUAUUACGCAUC, the “self-splicing fitness (ln)” value (30 °C) is -3.04 ± 0.35 and the “self-splicing fitness (ln)” value (37 °C) was -2.33 ± 0.35. As for CGAGAGCAAUAUUACGCAUG, the “self-splicing fitness (ln)” value was -2.98 ± 0.12 (30 °C) and -2.02 ± 0.12 (37 °C). Take CGAGAGCAAUAUUACGCGUA: the “self-splicing fitness (ln)” value is -3.31 ± 0.19 (30 °C) and -2.67 ± 0.29 (37 °C). The like results for CGAGAGCAAUAUUACGCUUG were, in that order, -3.51 ± 0.33 and -3.14 ± 0.34. For the sequence CGAGAGCAAUAUUACGGCUU, the “self-splicing fitness (ln)” value (37 °C) is -3.05 ± 0.4. Consider CGAGAGCAAUAUUACGGUAC, for which the “self-splicing fitness (ln)” value by setting is: (30 °C) -3.63 ± 0.47; (37 °C) -0.529 ± 0.28. Taken in the same sequence, the figures for CGAGAGCAAUAUUACGGUUG were -2.88 ± 0.14 and -1.21 ± 0.14. CGAGAGCAAUAUUACGUAAU: the “self-splicing fitness (ln)” value (37 °C) is -2.01 ± 0.3. CGAGAGCAAUAUUACGUACC: the “self-splicing fitness (ln)” value (30 °C) is -3.27 ± 0.38 and the “self-splicing fitness (ln)” value (37 °C) was -1.7 ± 0.41. The like results for CGAGAGCAAUAUUACGUGCG were, in that order, -3.43 ± 0.29 and -1.8 ± 0.2. For the sequence CGAGAGCAAUAUUACGUGGC, the “self-splicing fitness (ln)” value by setting is: (30 °C) -4.31 ± 0.46; (37 °C) -2.55 ± 0.26.

Consider CGAGAGCAAUAUUACGUGUU, for which the “self-splicing fitness (ln)” value by setting is: (30 °C) -3.83 ± 0.25; (37 °C) -3.71 ± 0.46. Take CGAUAGCAAUAUUACGAACG: the “self-splicing fitness (ln)” value was -0.892 ± 0.11 (30 °C) and 0.0703 ± 0.12 (37 °C).

Turning to CGAUAGCAAUAUUACGAAGC, the “self-splicing fitness (ln)” value (37 °C) is -1.1 ± 0.4. Consider CGAUAGCAAUAUUACGAAUA, for which the “self-splicing fitness (ln)” value is -0.837 ± 0.46 (30 °C) and -1.47 ± 0.46 (37 °C). Taken in the same sequence, the figures for CGAUAGCAAUAUUACGAAUC were -3.74 ± 0.22 and -3.08 ± 0.28. The like results for CGAUAGCAAUAUUACGAGCA were, in that order, -3.83 ± 0.26 and -1.86 ± 0.17. The like results for CGAUAGCAAUAUUACGAGCC were, in that order, -2.23 ± 0.28 and -2.61 ± 0.44. With CGAUAGCAAUAUUACGAGGC, the “self-splicing fitness (ln)” value by setting is: (30 °C) -3.66 ± 0.35; (37 °C) -1.95 ± 0.48. Taken in the same sequence, the figures for CGAUAGCAAUAUUACGAGUC were -2.74 ± 0.19 and -3.73 ± 0.39.

With CGAUAGCAAUAUUACGCAAC, the “self-splicing fitness (ln)” value was -3.83 ± 0.4 (30 °C) and -2.49 ± 0.3 (37 °C). The like results for CGAUAGCAAUAUUACGCACU were, in that order, -1.12 ± 0.14 and 0.174 ± 0.14.

For the sequence CGAUAGCAAUAUUACGCCUU, the “self-splicing fitness (ln)” value by setting is: (30 °C) -2.23 ± 0.17; (37 °C) -2.24 ± 0.17. Taken in the same sequence, the figures for CGAUAGCAAUAUUACGCGAA were -2.95 ± 0.21 and -1.92 ± 0.21. Taken in the same sequence, the figures for CGAUAGCAAUAUUACGCGAG were -3.16 ± 0.26 and -2.42 ± 0.2.

For CGAUAGCAAUAUUACGCUAA, under “37 °C”, the “self-splicing fitness (ln)” value was -0.607 ± 0.26.
